Data published in US20230175069A1 (published 2023).

What was measured:
[1] = molecular target: T1, SRC (SRC Proto-Oncogene, Non-Receptor Tyrosine Kinase) (human, UniProt P12931 2-536); experiment: co-immunoprecipitation with anti-SRC antibody from T47D cells expressing wtCCDC170, western blot with anti-CCDC170 antibody
T1 construct: Endogenous protein of T47D cells, in cell lysate

[2] = molecular target: T2, HER2 (Erb-B2 Receptor Tyrosine Kinase 2) (human, UniProt P04626 23-1255); experiment: co-immunoprecipitation with anti-HER2 antibody from T47D cells expressing wtCCDC170, western blot with anti-CCDC170 antibody
T2 construct: Endogenous protein of T47D cells, in cell lysate; also called HER2/neu

[3] = molecular target: T3, HER3 (Erb-B2 Receptor Tyrosine Kinase 3) (human, UniProt P21860 20-1342); experiment: co-immunoprecipitation with anti-HER3 antibody from T47D cells expressing wtCCDC170, western blot with anti-CCDC170 antibody
T3 construct: Endogenous protein of T47D cells, in cell lysate; also called ErbB3
T3 sequence (P21860 20-1342 limits assumed): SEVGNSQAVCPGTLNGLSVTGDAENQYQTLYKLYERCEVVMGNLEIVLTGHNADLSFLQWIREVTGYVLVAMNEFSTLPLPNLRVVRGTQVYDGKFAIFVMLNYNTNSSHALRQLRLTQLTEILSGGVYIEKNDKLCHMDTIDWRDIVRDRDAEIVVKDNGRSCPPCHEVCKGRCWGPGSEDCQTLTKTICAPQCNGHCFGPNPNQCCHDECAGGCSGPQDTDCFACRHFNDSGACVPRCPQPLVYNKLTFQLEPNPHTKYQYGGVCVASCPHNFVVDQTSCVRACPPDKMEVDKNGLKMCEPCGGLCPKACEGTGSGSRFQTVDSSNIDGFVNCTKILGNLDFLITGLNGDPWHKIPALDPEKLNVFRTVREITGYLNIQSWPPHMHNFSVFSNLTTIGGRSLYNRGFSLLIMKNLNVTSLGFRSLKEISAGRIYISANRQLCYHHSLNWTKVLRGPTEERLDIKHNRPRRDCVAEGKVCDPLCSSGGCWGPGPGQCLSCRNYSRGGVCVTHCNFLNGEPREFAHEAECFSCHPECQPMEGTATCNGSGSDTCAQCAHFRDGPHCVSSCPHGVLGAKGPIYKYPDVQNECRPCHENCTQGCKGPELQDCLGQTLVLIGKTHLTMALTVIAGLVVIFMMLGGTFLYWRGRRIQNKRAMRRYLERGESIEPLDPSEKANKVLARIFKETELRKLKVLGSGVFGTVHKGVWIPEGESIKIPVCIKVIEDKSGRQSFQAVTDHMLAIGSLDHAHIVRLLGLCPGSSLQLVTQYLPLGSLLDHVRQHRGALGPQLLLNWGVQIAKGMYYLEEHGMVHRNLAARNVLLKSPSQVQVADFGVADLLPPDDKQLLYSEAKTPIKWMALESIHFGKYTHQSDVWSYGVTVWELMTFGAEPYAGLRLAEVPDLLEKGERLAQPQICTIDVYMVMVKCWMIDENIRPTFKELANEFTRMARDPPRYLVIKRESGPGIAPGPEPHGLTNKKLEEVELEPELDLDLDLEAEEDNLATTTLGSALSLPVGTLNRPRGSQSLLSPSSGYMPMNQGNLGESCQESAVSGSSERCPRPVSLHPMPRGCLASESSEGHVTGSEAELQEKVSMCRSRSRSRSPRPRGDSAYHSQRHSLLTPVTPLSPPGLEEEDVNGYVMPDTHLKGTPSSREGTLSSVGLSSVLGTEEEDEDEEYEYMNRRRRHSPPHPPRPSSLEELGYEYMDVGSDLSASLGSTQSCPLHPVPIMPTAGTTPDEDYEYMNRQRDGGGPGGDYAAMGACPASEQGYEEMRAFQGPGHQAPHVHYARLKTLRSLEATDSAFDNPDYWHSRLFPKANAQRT

Measured: binding result

B1: wild type CCDC170 (Coiled-Coil Domain Containing 170) (other)
chain: MSLDCTSHIALGAASPAPEETYDHLSEVPVTREQLNHYRNVAQNARSELAATLVKFECAQSELQDLRSKMLSKEVSCQELKAEMESYKENNARKSSLLTSLRDRVQELEEESAALSTSKIRTEITAHAAIKENQELKKKVVELNEKLQKCSKENEENKKQVSKNCRKHEEFLTQLRDCLDPDERNDKASDEDLILKLRDLRKENEFVKGQIVILEETINVHEMEAKASRETIMRLASEVNREQKKAASCTEEKEKLNQDLLSAVEAKEALEREVKIFQERLLAGQQVWDASKQEVSLLKKSSSELEKSLKASQDAVTTSQSQYFSFREKIAALLRGRLSMTGSTEDTILEKIREMDSREESRDRMVSQLEAQISELVEQLGKESGFHQKALQRAQKAENMLETLQGQLTHLEAELVSGGVLRDNLNFEKQKYLKFLDQLSQKMKLDQMAAELGFDMRLDVVLARTEQLVRLESNAVIENKTIAHNLQRKLKTQKERLESKELHMSLLRQKIAQLEEEKQARTALVVERDNAHLTIRNLQKKVERLQKELNTCRDLHTELKAKLADTNELKIKTLEQTKAIEDLNKSRDQLEKMKEKAEKKLMSVKSELDTTEHEAKENKERARNMIEVVTSEMKTLKKSLEEAEKREKQLADFREVVSQMLGLNVTSLALPDYEIIKCLERLVHSHQHHFVTCACLKDVTTGQERHPQGHLQLLH
notes: Ectopically expressed in T47D cells and assayed in cell lysate; also called wtCCDC170; WT
no binding: all assays above
